Assay results: US20200057047

B1: IKKβ (immunoprecipitated from HEK293T transfectants) (enzyme, UniProt O14920 1-756, looked up, species assumed)
Inhibitor of nuclear factor kappa-B kinase subunit beta: MSWSPSLTTQTCGAWEMKERLGTGGFGNVIRWHNQETGEQIAIKQCRQELSPRNRERWCLEIQIMRRLTHPNVVAARDVPEGMQNLAPNDLPLLAMEYCQGGDLRKYLNQFENCCGLREGAILTLLSDIASALRYLHENRIIHRDLKPENIVLQQGEQRLIHKIIDLGYAKELDQGSLCTSFVGTLQYLAPELLEQQKYTVTVDYWSFGTLAFECITGFRPFLPNWQPVQWHSKVRQKSEVDIVVSEDLNGTVKFSSSLPYPNNLNSVLAERLEKWLQLMLMWHPRQRGTDPTYGPNGCFKALDDILNLKLVHILNMVTGTIHTYPVTEDESLQSLKARIQQDTGIPEEDQELLQEAGLALIPDKPATQCISDGKLNEGHTLDMDLVFLFDNSKITYETQISPRPQPESVSCILQEPKRNLAFFQLRKVWGQVWHSIQTLKEDCNRLQQGQRAAMMNLLRNNSCLSKMKNSMASMSQQLKAKLDFFKTSIQIDLEKYSEQTEFGITSDKLLLAWREMEQAVELCGRENEVKLLVERMMALQTDIVDLQRSPMGRKQGGTLDDLEEQARELYRRLREKPRDQRTEGDSQEMVRLLLQAIQSFEKKVRVIYTQLSKTVVCKQKALELLPKVEEVVSLMNEDEKTVVRLQEKRQKELWNLLKIACSKVRGPVSGSPDSMNASRLSQPGQLMSQPSTASNSLPEPAKKSEELVAEAHNLCTLLENAIQDTVREQDQSFTALDWSWLQTEEEEHSCLEQAS
B2: Flag-tagged GLK (protein)
chain: DYKDDDDKMNPGFDLSRRNPQEDFELIQRIGSGTYGDVYKARNVNTGELAAIKVIKLEPGEDFAVVQQEIIMMKDCKHPNIVAYFGSYLRRDKLWICMEFCGGGSLQDIYHVTGPLSELQIAYVSRETLQGLYYLHSKGKMHRDIKGANILLTDNGHVKLADFGVSAQITATIAKRKSFIGTPYWMAPEVAAVERKGGYNQLCDLWAVGITAIELAELQPPMFDLHPMRALFLMTKSNFQPPKLKDKMKWSNSFHHFVKMALTKNPKKRPTAEKLLQHPFVTQHLTRSLAIELLDKVNNPDHSTYHDFDDDDPEPLVAVPHRIHSTSRNVREEKTRSEITFGQVKFDPPLRKETEPHHELPDSDGFLDSSEEIYYTARSNLDLQLEYGQGHQGGYFLGANKSLLKSVEEELHQRGHVAHLEDDEGDDDESKHSTLKAKIPPPLPPKPKSIFIPQEMHSTEDENQGTIKRCPMSGSPAKPSQVPPRPPPPRLPPHKPVALGNGMSSFQLNGERDGSLCQQQNEHRGTNLSRKEKKDVPKPISNGLPPTPKVHMGACFSKVFNGCPLKIHCASSWINPDTRDQYLIFGAEEGIYTLNLNELHETSMEQLFPRRCTWLYVMNNCLLSISGKASQLYSHNLPGLFDYARQMQKLPVAIPAHKLPDRILPRKFSVSAKIPETKWCQKCCVVRNPYTGHKYLCGALQTSIVLLEWVEPMQKFMLIKHIDFPIPCPLRMFEMLVVPEQEYPLVCVGVSRGRDFNQVVRFETVNPNSTSSWFTESDTPQTNVTHVTQLERDTILVCLDCCIKIVNLQGRLKSSRKLSSELTFDFQIESIVCLQDSVLAFWKHGMQGRSFRSNEVTQEISDSTRIFRLLGSDRVVVLESRPTDNPTANSNLYILAGHENSY

Legend:
[1] = system: Flag-tagged RORγt (wild type)
Flag-tagged RORγt (wild type), sequence (chain, as listed by the source): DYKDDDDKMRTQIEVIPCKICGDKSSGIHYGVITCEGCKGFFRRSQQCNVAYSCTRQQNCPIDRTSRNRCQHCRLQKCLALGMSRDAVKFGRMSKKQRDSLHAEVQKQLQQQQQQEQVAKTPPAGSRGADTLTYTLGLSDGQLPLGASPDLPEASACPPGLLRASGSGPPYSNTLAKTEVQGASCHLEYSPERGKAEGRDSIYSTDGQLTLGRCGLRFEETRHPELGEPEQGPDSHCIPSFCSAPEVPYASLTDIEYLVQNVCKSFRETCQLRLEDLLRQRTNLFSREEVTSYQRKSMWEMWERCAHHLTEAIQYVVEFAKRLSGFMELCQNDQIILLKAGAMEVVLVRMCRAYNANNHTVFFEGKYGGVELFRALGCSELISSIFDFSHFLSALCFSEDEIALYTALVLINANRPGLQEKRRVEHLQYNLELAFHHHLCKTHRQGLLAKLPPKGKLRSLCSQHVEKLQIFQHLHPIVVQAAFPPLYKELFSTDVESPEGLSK

[2] = molecular target: Myc-tagged IQGAP1 (wild type)
Myc-tagged IQGAP1 (wild type), sequence (chain, as listed by the source): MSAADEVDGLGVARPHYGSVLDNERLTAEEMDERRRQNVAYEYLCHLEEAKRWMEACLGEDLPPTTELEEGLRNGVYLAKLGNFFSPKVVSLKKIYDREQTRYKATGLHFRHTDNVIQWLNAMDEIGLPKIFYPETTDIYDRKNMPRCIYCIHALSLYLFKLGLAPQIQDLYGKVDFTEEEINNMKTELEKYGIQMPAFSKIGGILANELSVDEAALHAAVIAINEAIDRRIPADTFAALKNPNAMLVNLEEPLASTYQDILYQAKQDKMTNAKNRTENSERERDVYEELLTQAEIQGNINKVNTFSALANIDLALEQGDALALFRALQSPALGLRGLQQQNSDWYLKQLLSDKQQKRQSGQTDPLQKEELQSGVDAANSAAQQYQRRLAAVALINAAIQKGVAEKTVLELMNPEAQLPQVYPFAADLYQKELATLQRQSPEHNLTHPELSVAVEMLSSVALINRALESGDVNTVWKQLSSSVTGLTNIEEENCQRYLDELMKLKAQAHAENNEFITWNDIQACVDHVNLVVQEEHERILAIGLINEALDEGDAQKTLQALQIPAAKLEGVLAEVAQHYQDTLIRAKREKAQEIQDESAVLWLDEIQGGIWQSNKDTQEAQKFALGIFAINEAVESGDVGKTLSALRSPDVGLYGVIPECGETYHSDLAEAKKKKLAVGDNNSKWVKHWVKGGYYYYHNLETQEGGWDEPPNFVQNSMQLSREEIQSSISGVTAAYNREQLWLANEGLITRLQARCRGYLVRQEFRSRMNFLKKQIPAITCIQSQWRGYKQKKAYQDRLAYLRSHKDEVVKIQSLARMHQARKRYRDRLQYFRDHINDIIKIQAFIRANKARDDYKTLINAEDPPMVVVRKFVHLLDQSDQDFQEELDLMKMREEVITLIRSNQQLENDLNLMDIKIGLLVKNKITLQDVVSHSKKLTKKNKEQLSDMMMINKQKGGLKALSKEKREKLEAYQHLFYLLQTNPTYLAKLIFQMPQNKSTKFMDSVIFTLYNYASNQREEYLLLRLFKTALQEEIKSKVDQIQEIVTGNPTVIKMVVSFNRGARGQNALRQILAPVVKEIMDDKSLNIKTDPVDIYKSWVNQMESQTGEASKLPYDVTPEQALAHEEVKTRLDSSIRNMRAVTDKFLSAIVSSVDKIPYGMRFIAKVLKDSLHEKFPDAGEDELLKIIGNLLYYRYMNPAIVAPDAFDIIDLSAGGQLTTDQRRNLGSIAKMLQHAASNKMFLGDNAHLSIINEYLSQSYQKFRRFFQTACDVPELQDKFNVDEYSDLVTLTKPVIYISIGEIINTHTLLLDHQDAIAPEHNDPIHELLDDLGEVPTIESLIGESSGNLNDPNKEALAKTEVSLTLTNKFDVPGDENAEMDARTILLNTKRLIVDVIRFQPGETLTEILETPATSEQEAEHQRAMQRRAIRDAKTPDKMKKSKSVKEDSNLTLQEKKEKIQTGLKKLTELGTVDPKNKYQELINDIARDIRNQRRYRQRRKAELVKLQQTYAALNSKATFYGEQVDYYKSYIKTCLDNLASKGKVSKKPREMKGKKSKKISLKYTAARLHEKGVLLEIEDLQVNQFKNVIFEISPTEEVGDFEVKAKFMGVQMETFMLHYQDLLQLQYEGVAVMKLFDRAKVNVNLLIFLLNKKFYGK

Row | Protein | in vitro kinase assay: RORγt phosphorylation [1] | in vitro kinase assay: IQGAP1 phosphorylation [2]
1 | B1 | RORγt phosphorylation was induced in vitro by IKKβ | 
2 | B2 |  | IQGAP1 phosphorylation was induced by GLK
